In article PMC7755605, “The Interaction of TRAF6 With Neuroplastin Promotes Spinogenesis During Early Neuronal Development” (Frontiers in Cell and Developmental Biology, 2020):

Biological target: T1, N-terminally GST-tagged TRAF6 (mouse, UniProt P70196 1-530)
T1 construct: TNF receptor-associated factor 6 (TRAF6), mouse; amplified by PCR with primers from the start codon to the stop codon; 530 residues by the printed limits of the cc-c construct; also called GST-TRAF6; purified recombinant TRAF6; source: E. coli BL21 (DE3), purified (GST bulk kit); not shown: GST, N-terminal, kept
T1 sequence (looked up): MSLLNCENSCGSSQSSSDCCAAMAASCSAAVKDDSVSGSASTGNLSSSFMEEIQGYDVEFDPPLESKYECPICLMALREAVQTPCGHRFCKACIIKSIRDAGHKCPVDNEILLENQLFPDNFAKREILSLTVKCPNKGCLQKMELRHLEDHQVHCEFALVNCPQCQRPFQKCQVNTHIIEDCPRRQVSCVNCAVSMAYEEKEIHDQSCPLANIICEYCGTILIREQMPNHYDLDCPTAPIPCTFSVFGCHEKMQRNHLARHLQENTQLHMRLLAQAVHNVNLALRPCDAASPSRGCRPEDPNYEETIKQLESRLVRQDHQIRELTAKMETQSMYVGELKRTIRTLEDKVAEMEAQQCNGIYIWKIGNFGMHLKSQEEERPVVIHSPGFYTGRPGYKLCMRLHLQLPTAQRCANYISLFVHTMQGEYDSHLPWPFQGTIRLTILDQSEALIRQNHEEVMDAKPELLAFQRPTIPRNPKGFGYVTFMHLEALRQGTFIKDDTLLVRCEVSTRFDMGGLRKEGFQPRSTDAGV
Test: SPR; BIACORE X100, single cycle kinetics; GST-TRAF6 amine-coupled on a CM5 chip, GST-coated sensor as reference; neuroplastin peptide injected at 2.5, 5, 100, 200 and 400 uM; HBS-P buffer
Conditions: both partners purified

B1: neuroplastin intracellular peptide containing the TRAF6 binding motif (peptide)
chain: EKRKRPDEVPDAGPMKTNSTNNHKDKNLRQRNTN
modifications: Peptide limits are not printed (possibly in the figure or supplement). The whole cytoplasmic tail is taken by convention from the UniProt topology; it should contain the printed motif RKRPDEVPD. …
In the case of B1, the Kd is reported as 88 µM and the “stoichiometry N” value is reported as 1.
